Patent US20110263827A1 (AbbVie / Abbott, published 2011)

Legend:
IGF1R [1] = target: T1, IGF1R (UniProt P08069 31-932, limits assumed, biotinylated); test: direct bind ELISA, N-term VD;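 also: antibody or DVD-Ig preparations bound to immobilized target antigen on ELISA plates, 1 h at room temperature, TMB detection read as absorbance at 450 nm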
T1 construct: ELISA antigen

EGFR [2] = target: T2, EGFR (UniProt P00533 25-645, limits assumed, biotinylated); test: direct bind ELISA, C-term VD;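 also: ELISA with antibody or DVD-Ig preparations applied to target antigen-coated plates for 1 h at room temperature, TMB colour development, absorbance read at 450 nm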
T2 construct: ELISA antigen; construct not described

EGFR [3] = target: T2, EGFR; test: direct bind ELISA, N-term VD;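 also: antibody or DVD-Ig preparations bound to immobilized target antigen on ELISA plates, 1 h at room temperature, TMB detection read as absorbance at 450 nm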
IGF1R [4] = target: T1, IGF1R; test: direct bind ELISA, C-term VD;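 also: ELISA with antibody or DVD-Ig preparations applied to target antigen-coated plates for 1 h at room temperature, TMB colour development, absorbance read at 450 nm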
RON = RON (UniProt Q04912 25-571, biotinylated); test: direct bind ELISA, N-term VD;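 also: antibody or DVD-Ig preparations bound to immobilized target antigen on ELISA plates, 1 h at room temperature, TMB detection read as absorbance at 450 nm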

Binder | EC50 (IGF1R [1]) [nM] | EC50 (EGFR [2]) [nM] | EC50 (EGFR [3]) [nM] | EC50 (IGF1R [4]) [nM] | EC50 (RON) [nM]
DVD776 (bispecific antibody, DVD-Ig; HC L, LC L; variable parts only) VH: EVQLLESGGGLVQPGGSLRLSCTASGFTFSSYAMNWVRQAPGKGLEWVSAISGSGGTTFYADSVKGRFTISRDNSRTTLYLQMNSLRAEDTAVYYCAKDLGWSDSYYYYYGMDVWGQGTTVTVSSASTKGPSVFPLAPQVQLQESGPGLVKPSQTLSLTCTVSGYSISSDFAWNWIRQPPGKGLEWMGYISYSGNTRYQPSLKSRITISRDTSKNQFFLKLNSVTAADTATYYCVTAGRGFPYWGQGTLVTVSS VL: DIQMTQFPSSLSASVGDRVTITCRASQGIRNDLGWYQQKPGKAPKRLIYAASRLHRGVPSRFSGSGSGTEFTLTISSLQPEDFATYYCLQHNSYPCSFGQGTKLEIKRTVAAPSVFIFPPDIQMTQSPSSMSVSVGDRVTITCHSSQDINSNIGWLQQKPGKSFKGLIYHGTNLDDGVPSRFSGSGSGTDYTLTISSLQPEDFATYYCVQYAQFPWTFGGGTKLEIKR | 0.83 | 286 |  |  | 
DVD835 (bispecific antibody, DVD-Ig; HC S, LC L; variable parts only) VH: QVQLQESGPGLVKPSQTLSLTCTVSGYSISSDFAWNWIRQPPGKGLEWMGYISYSGNTRYQPSLKSRITISRDTSKNQFFLKLNSVTAADTATYYCVTAGRGFPYWGQGTLVTVSSASTKGPEVQLLESGGGLVQPGGSLRLSCTASGFTFSSYAMNWVRQAPGKGLEWVSAISGSGGTTFYADSVKGRFTISRDNSRTTLYLQMNSLRAEDTAVYYCAKDLGWSDSYYYYYGMDVWGQGTTVTVSS VL: DIQMTQSPSSMSVSVGDRVTITCHSSQDINSNIGWLQQKPGKSFKGLIYHGTNLDDGVPSRFSGSGSGTDYTLTISSLQPEDFATYYCVQYAQFPWTFGGGTKLEIKRTVAAPSVFIFPPDIQMTQFPSSLSASVGDRVTITCRASQGIRNDLGWYQQKPGKAPKRLIYAASRLHRGVPSRFSGSGSGTEFTLTISSLQPEDFATYYCLQHNSYPCSFGQGTKLEIKR |  |  | 2.42 | 3.47 | 
DVD805 (bispecific antibody, DVD-Ig; HC L, LC S; variable parts only) VH: QVQLQESGPGLVKPSQTLSLTCTVSGYSISSDFAWNWIRQPPGKGLEWMGYISYSGNTRYQPSLKSRITISRDTSKNQFFLKLNSVTAADTATYYCVTAGRGFPYWGQGTLVTVSSASTKGPSVFPLAPEVQLLESGGGLVQPGGSLRLSCTASGFTFSSYAMNWVRQAPGKGLEWVSAISGSGGTTFYADSVKGRFTISRDNSRTTLYLQMNSLRAEDTAVYYCAKDLGWSDSYYYYYGMDVWGQGTTVTVSS VL: DIQMTQSPSSMSVSVGDRVTITCHSSQDINSNIGWLQQKPGKSFKGLIYHGTNLDDGVPSRFSGSGSGTDYTLTISSLQPEDFATYYCVQYAQFPWTFGGGTKLEIKRTVAAPDIQMTQFPSSLSASVGDRVTITCRASQGIRNDLGWYQQKPGKAPKRLIYAASRLHRGVPSRFSGSGSGTEFTLTISSLQPEDFATYYCLQHNSYPCSFGQGTKLEIKR |  |  | 0.48 | 0.99 | 
DVD828 (bispecific antibody, DVD-Ig; HC S, LC L; variable parts only) VH: EVQLVQSGGGLVKPGGSLRLSCAASGFTFSSYAMHWVRQAPGKGLEWVAVISYDGSNKYYADSVKGRFTISRDNSKNTLYLQMNSLRAEDTAVYYCARFSGWPNNYYYYGMDVWGQGTTVTVSSASTKGPQVQLQESGPGLVKPSQTLSLTCTVSGYSISSDFAWNWIRQPPGKGLEWMGYISYSGNTRYQPSLKSRITISRDTSKNQFFLKLNSVTAADTATYYCVTAGRGFPYWGQGTLVTVSS VL: DVVMTQSPLSLPVTPGEPASISCRSSQSLLHSNGFNYVDWYLQKPGQSPHLLIYFGSYRASGVPDRFSGSGSGTDFTLKISRVEAEDVGVYYCMQALQTPPWTFGQGTKVEIRRTVAAPSVFIFPPDIQMTQSPSSMSVSVGDRVTITCHSSQDINSNIGWLQQKPGKSFKGLIYHGTNLDDGVPSRFSGSGSGTDYTLTISSLQPEDFATYYCVQYAQFPWTFGGGTKLEIKR |  | 19.8 |  |  | 0.2
DVD798 (bispecific antibody, DVD-Ig; HC L, LC S; variable parts only) VH: EVQLVQSGGGLVKPGGSLRLSCAASGFTFSSYAMHWVRQAPGKGLEWVAVISYDGSNKYYADSVKGRFTISRDNSKNTLYLQMNSLRAEDTAVYYCARFSGWPNNYYYYGMDVWGQGTTVTVSSASTKGPSVFPLAPQVQLQESGPGLVKPSQTLSLTCTVSGYSISSDFAWNWIRQPPGKGLEWMGYISYSGNTRYQPSLKSRITISRDTSKNQFFLKLNSVTAADTATYYCVTAGRGFPYWGQGTLVTVSS VL: DVVMTQSPLSLPVTPGEPASISCRSSQSLLHSNGFNYVDWYLQKPGQSPHLLIYFGSYRASGVPDRFSGSGSGTDFTLKISRVEAEDVGVYYCMQALQTPPWTFGQGTKVEIRRTVAAPDIQMTQSPSSMSVSVGDRVTITCHSSQDINSNIGWLQQKPGKSFKGLIYHGTNLDDGVPSRFSGSGSGTDYTLTISSLQPEDFATYYCVQYAQFPWTFGGGTKLEIKR |  | 17.9 |  |  | 0.18

Results, then the binder that gave them:

EC50 (IGF1R [1]) [nM] | EC50 (EGFR [2]) [nM] | EC50 (EGFR [3]) [nM] | EC50 (IGF1R [4]) [nM] | EC50 (RON) [nM] | Binder
0.4 | 53.8 |  |  |  | DVD806 (bispecific antibody, DVD-Ig; HC L, LC S; variable parts only) VH: EVQLLESGGGLVQPGGSLRLSCTASGFTFSSYAMNWVRQAPGKGLEWVSAISGSGGTTFYADSVKGRFTISRDNSRTTLYLQMNSLRAEDTAVYYCAKDLGWSDSYYYYYGMDVWGQGTTVTVSSASTKGPSVFPLAPQVQLQESGPGLVKPSQTLSLTCTVSGYSISSDFAWNWIRQPPGKGLEWMGYISYSGNTRYQPSLKSRITISRDTSKNQFFLKLNSVTAADTATYYCVTAGRGFPYWGQGTLVTVSS VL: DIQMTQFPSSLSASVGDRVTITCRASQGIRNDLGWYQQKPGKAPKRLIYAASRLHRGVPSRFSGSGSGTEFTLTISSLQPEDFATYYCLQHNSYPCSFGQGTKLEIKRTVAAPDIQMTQSPSSMSVSVGDRVTITCHSSQDINSNIGWLQQKPGKSFKGLIYHGTNLDDGVPSRFSGSGSGTDYTLTISSLQPEDFATYYCVQYAQFPWTFGGGTKLEIKR
0.51 | 56.8 |  |  |  | DVD836 (bispecific antibody, DVD-Ig; HC S, LC L; variable parts only) VH: EVQLLESGGGLVQPGGSLRLSCTASGFTFSSYAMNWVRQAPGKGLEWVSAISGSGGTTFYADSVKGRFTISRDNSRTTLYLQMNSLRAEDTAVYYCAKDLGWSDSYYYYYGMDVWGQGTTVTVSSASTKGPQVQLQESGPGLVKPSQTLSLTCTVSGYSISSDFAWNWIRQPPGKGLEWMGYISYSGNTRYQPSLKSRITISRDTSKNQFFLKLNSVTAADTATYYCVTAGRGFPYWGQGTLVTVSS VL: DIQMTQFPSSLSASVGDRVTITCRASQGIRNDLGWYQQKPGKAPKRLIYAASRLHRGVPSRFSGSGSGTEFTLTISSLQPEDFATYYCLQHNSYPCSFGQGTKLEIKRTVAAPSVFIFPPDIQMTQSPSSMSVSVGDRVTITCHSSQDINSNIGWLQQKPGKSFKGLIYHGTNLDDGVPSRFSGSGSGTDYTLTISSLQPEDFATYYCVQYAQFPWTFGGGTKLEIKR
 |  | 3.59 | 2.77 |  | DVD775 (bispecific antibody, DVD-Ig; HC L, LC L; variable parts only) VH: QVQLQESGPGLVKPSQTLSLTCTVSGYSISSDFAWNWIRQPPGKGLEWMGYISYSGNTRYQPSLKSRITISRDTSKNQFFLKLNSVTAADTATYYCVTAGRGFPYWGQGTLVTVSSASTKGPSVFPLAPEVQLLESGGGLVQPGGSLRLSCTASGFTFSSYAMNWVRQAPGKGLEWVSAISGSGGTTFYADSVKGRFTISRDNSRTTLYLQMNSLRAEDTAVYYCAKDLGWSDSYYYYYGMDVWGQGTTVTVSS VL: DIQMTQSPSSMSVSVGDRVTITCHSSQDINSNIGWLQQKPGKSFKGLIYHGTNLDDGVPSRFSGSGSGTDYTLTISSLQPEDFATYYCVQYAQFPWTFGGGTKLEIKRTVAAPSVFIFPPDIQMTQFPSSLSASVGDRVTITCRASQGIRNDLGWYQQKPGKAPKRLIYAASRLHRGVPSRFSGSGSGTEFTLTISSLQPEDFATYYCLQHNSYPCSFGQGTKLEIKR
 | 29.9 |  |  | 0.18 | DVD326 (bispecific antibody, DVD-Ig; HC S, LC S; variable parts only) VH: EVQLVQSGGGLVKPGGSLRLSCAASGFTFSSYAMHWVRQAPGKGLEWVAVISYDGSNKYYADSVKGRFTISRDNSKNTLYLQMNSLRAEDTAVYYCARFSGWPNNYYYYGMDVWGQGTTVTVSSASTKGPQVQLQESGPGLVKPSQTLSLTCTVSGYSISSDFAWNWIRQPPGKGLEWMGYISYSGNTRYQPSLKSRITISRDTSKNQFFLKLNSVTAADTATYYCVTAGRGFPYWGQGTLVTVSS VL: DVVMTQSPLSLPVTPGEPASISCRSSQSLLHSNGFNYVDWYLQKPGQSPHLLIYFGSYRASGVPDRFSGSGSGTDFTLKISRVEAEDVGVYYCMQALQTPPWTFGQGTKVEIRRTVAAPDIQMTQSPSSMSVSVGDRVTITCHSSQDINSNIGWLQQKPGKSFKGLIYHGTNLDDGVPSRFSGSGSGTDYTLTISSLQPEDFATYYCVQYAQFPWTFGGGTKLEIKR
0.19 | 137 |  |  |  | DVD334 (bispecific antibody, DVD-Ig; HC S, LC S; variable parts only) VH: EVQLLESGGGLVQPGGSLRLSCTASGFTFSSYAMNWVRQAPGKGLEWVSAISGSGGTTFYADSVKGRFTISRDNSRTTLYLQMNSLRAEDTAVYYCAKDLGWSDSYYYYYGMDVWGQGTTVTVSSASTKGPQVQLQESGPGLVKPSQTLSLTCTVSGYSISSDFAWNWIRQPPGKGLEWMGYISYSGNTRYQPSLKSRITISRDTSKNQFFLKLNSVTAADTATYYCVTAGRGFPYWGQGTLVTVSS VL: DIQMTQFPSSLSASVGDRVTITCRASQGIRNDLGWYQQKPGKAPKRLIYAASRLHRGVPSRFSGSGSGTEFTLTISSLQPEDFATYYCLQHNSYPCSFGQGTKLEIKRTVAAPDIQMTQSPSSMSVSVGDRVTITCHSSQDINSNIGWLQQKPGKSFKGLIYHGTNLDDGVPSRFSGSGSGTDYTLTISSLQPEDFATYYCVQYAQFPWTFGGGTKLEIKR
 |  | 3.55 | 78.6 |  | DVD333 (bispecific antibody, DVD-Ig; HC S, LC S; variable parts only) VH: QVQLQESGPGLVKPSQTLSLTCTVSGYSISSDFAWNWIRQPPGKGLEWMGYISYSGNTRYQPSLKSRITISRDTSKNQFFLKLNSVTAADTATYYCVTAGRGFPYWGQGTLVTVSSASTKGPEVQLLESGGGLVQPGGSLRLSCTASGFTFSSYAMNWVRQAPGKGLEWVSAISGSGGTTFYADSVKGRFTISRDNSRTTLYLQMNSLRAEDTAVYYCAKDLGWSDSYYYYYGMDVWGQGTTVTVSS VL: DIQMTQSPSSMSVSVGDRVTITCHSSQDINSNIGWLQQKPGKSFKGLIYHGTNLDDGVPSRFSGSGSGTDYTLTISSLQPEDFATYYCVQYAQFPWTFGGGTKLEIKRTVAAPDIQMTQFPSSLSASVGDRVTITCRASQGIRNDLGWYQQKPGKAPKRLIYAASRLHRGVPSRFSGSGSGTEFTLTISSLQPEDFATYYCLQHNSYPCSFGQGTKLEIKR
